Measured values from patent publication US20070123452A1, “Method of selecting novel immunosuppressant” (Astellas Pharma Inc., priority 2002, published 2007).

Legend:
histone = assay: HDAC activity with [3H]-labeled acetylated histone as a substrate; format: biochemical, human; conditions: expressed in 293T cells, crudely purified; compared to wild-type HDAC4
Method: 7 μg of a plasmid for the expression of wild-type HDAC4 and HDAC4 dominant negative variants (H802K, H803L, H863L) was transfected to 293T cells by the calcium phosphate method; 48 hours later, whole cell lysate (cells were disrupted in 25 mM Tris, pH 7.4, 150 mM NaCl, 1 mM CaCl2, 1% Triton X-100, and cell debris was removed by centrifugation) was crudely purified using an anti-Flag antibody column (SIGMA, anti-Flag M2-agarose) (washed with TBS, then eluted with 0.1M Glysine-HCl, pH 3.5), and used for the measurement of HDAC activity. The reaction substrate used was a [^3H]-labeled acetylated histone prepared by cultivating Jurkat cells (2×10^8 cells) in 40 mL of an RPMI (SIGMA) medium containing 300 MBq [^3H] sodium acetate (NENTM Life Science Products, Inc.) for 2 hours, disrupting the cells in Lysis buffer, pH 6.5 (10 mM Tris-HCl, 50 mM Sodium Hydrogen sulfate, 1% Triton X-100, 10 mM MgCl2-6H2O, 8.6% Sucrose), washing the cells with Wash buffer (10 mM Tris-HCl, 13 mM EDTA), and then adding 0.4N H2SO4.

N-CoR(RD3) = target: T1, N-CoR(RD3) (Homo sapiens, UniProt O75376); assay: Two-hybrid detection system for interaction of HDAC4 and N-CoR; format: cell-based; conditions: Jurkat cells; 22 hours after transfection
T1 construct: expressed in transfected cells; host or cells: Jurkat cells (ATCC, TIB-152)
T1 sequence (O75376 1005-1498): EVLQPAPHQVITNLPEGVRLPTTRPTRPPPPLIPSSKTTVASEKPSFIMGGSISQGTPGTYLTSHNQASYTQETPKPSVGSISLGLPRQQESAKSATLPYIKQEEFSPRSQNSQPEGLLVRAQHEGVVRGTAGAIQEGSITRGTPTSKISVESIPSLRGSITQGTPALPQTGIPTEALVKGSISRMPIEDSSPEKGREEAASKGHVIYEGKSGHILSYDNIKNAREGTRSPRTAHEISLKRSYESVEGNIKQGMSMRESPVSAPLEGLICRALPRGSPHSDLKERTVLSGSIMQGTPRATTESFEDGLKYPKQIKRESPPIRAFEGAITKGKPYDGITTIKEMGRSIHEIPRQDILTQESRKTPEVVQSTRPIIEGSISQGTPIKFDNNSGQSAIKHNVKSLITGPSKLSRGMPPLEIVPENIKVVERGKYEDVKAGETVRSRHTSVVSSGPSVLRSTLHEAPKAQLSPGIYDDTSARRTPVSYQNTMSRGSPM
Method: First, from the literature information in Mol. Cell, 2002, Vol. 9, p.45-57, the site corresponding to the RD3 sequence of human N-COR was determined (1005-1498a.a.). The human N-COR CDS base sequence was obtained from GenBank accession number AF044209, and human N-CoR(RD3) cDNA was amplified from human-lung-derived cDNA by the PCR method. The primers used were RD3-Bam-FW (SEQ ID NO:82) and RD3-Not-RV (SEQ ID NO:83) below. For the base sequence of human N-CoR(RD3), see SEQ ID NO:21; for the amino acid sequence encoded by the base sequence of human N-CoR (RD3), see SEQ ID NO:22. […]
Subsequently, 10 μg of pG5-Luc (Promega), 3 μg of BND and 3 μg of pACT, or 10 μg of pG5-Luc, 3 μg of pBND-N-CoR (RD3) and 3 μg of pACT-HDAC4, or 10 μg of pG5-Luc, 3 μg of pBND-N-CoR(RD3) and 3 μg of pACT-HDAC4 (H863L), were mixed respectively, and each mixture was transfected to 1×10^7 Jurkat cells (ATCC, TIB-152) by the electroporation method (BIO-RAD, Gene Pulser II, voltage 300 V, charge 975 μF, 400 μL). Twenty-two hours after transfection, luciferase activity in the cells was measured according to the manual of the Bright-Glo Luciferase Assay System (Promega) using a multi-label counter (1420 MULTILABEL COUNTER ARVO SX, WALLAC).

[1] = test system: GATA-1 transcription (human GATA-1 promoter); assay: GATA-1 reporter gene assay in HEL cells; format: cell-based; conditions: 10 μg expression plasmid
Method: Using 15 μg of pGL3-HSI-IE Pro and 10 μg of a plasmid for the expression of various HDACs or HDAC variants, 8.75×10^6 HEL cells (accession number JCRB0062, JCRB) were transformed by the electroporation method (BIO-RAD, Gene Pulser II, voltage 1750 V, charge 10 μF, 365 μL). After transformation, 2 mL of 10% FBS RPMI 1640 was added, and this mixture was dispensed to a 96-well white plate in a ratio of 50 μL/well. After cultivation under conditions of 37° C., 5% CO2 and saturated humidity for 3 hours, 10% FBS RPMI 1640 medium was added at 50 μL/well. After cultivation under conditions of 37° C., 5% CO2 and saturated humidity for 8 hours, luciferase activity in cells were measured according to the manual of the Bright-Glo Luciferase Assay System, and GATA-1 transcriptional activity was measured using a multi-label counter.
A mixture of four kinds of HDAC4-targeted siRNA, i.e., siGENE HDAC4 SMARTpool (manufactured by Dharmacon Inc., marketed by B-Bridge international Inc., code number M-003497-00-05), or Non-specific Control Duplex IX (47% GC content) (manufactured by Dharmacon Inc., marketed by B-Bride international Inc., code number D-001206-09-20), and pGL3 IL2 Pro43 were transfected to Jurkat cells by the electroporation method using the same conditions as those mentioned above, and IL-2 transcriptional activity was measured. […]

B1: HDAC4 dominant negative variant (H863L): HDAC4 variant with H863L mutation, amino acid sequence SEQ ID NO:6, expressed from plasmid (protein, listed as Homo sapiens)
chain: MSSQSHPDGLSGRDQPVELLNPARVNHMPSTVDVATALPLQVAPSAVPMDLRLDHQFSLPVAEPALREQQLQQELLALKQKQQIQRQILIAEFQRQHEQLSRQHEAQLHEHIKQQQEMLAMKHQQELLEHQRKLERHRQEQELEKQHREQKLQQLKNKEKGKESAVASTEVKMKLQEFVLNKKKALAHRNLNHCISSDPRYWYGKTQHSSLDQSSPPQSGVSTSYNHPVLGMYDAKDDFPLRKTASEPNLKLRSRLKQKVAERRSSPLLRRKDGPVVTALKKRPLDVTDSACSSAPGSGPSSPNNSSGSVSAENGIAPAVPSIPAETSLAHRLVAREGSAAPLPLYTSPSLPNITLGLPATGPSAGTAGQQDTERLTLPALQQRLSLFPGTHLTPYLSTSPLERDGGAAHSPLLQHMVLLEQPPAQAPLVTGLGALPLHAQSLVGADRVSPSIHKLRQHRPLGRTQSAPLPQNAQALQHLVIQQQHQQFLEKHKQQFQQQQLQMNKIIPKPSEPARQPESHPEETEEELREHQALLDEPYLDRLPGQKEAHAQAGVQVKQEPIESDEEEAEPPREVEPGQRQPSEQELLFRQQALLLEQQRIHQLRNYQASMEAAGIPVSFGGHRPLSRAQSSPASATFPVSVQEPPTKPRFTTGLVYDTLMLKHQCTCGSSSSHPEHAGRIQSIWSRLQETGLRGKCECIRGRKATLEELQTVHSEAHTLLYGTNPLNRQKLDSKKLLGSLASVFVRLPCGGVGVDSDTIWNEVHSAGAARLAVGCVVELVFKVATGELKNGFAVVRPPGHHAEESTPMGFCYFNSVAVAAKLLQQRLSVSKILIVDWDVHHGNGTQQAFYSDPSVLYMSLLRYDDGNFFPGSGAPDEVGTGPGVGFNVNMAFTGGLDPPMGDAEYLAAFRTVVMPIASEFAPDVVLVSSGFDAVEGHPTPLGGYNLSARCFGYLTKQLMGLAGGRIVLALEGGHDLTAICDASEACVSALLGNELDPLPEKVLQQRPNANAVRSMEKVMEIHSKYWRCLQRTTSTAGRSLIEAQTCENEEAETVTAMASLSVGVKPAEKRPDEEPMEEEPPL
modifications: Dominant negative mutant (H863L) of human histone deacetylase-4 (HDAC4) gene
For B1, the “HDAC activity with histone as a substrate” value (histone) was “decreased HDAC activity compared to wild-type HDAC4”, the “interaction with N-CoR(RD3), GAL4 transcription activation (luciferase)” value (N-CoR(RD3)) was “did not interact with N-CoR(RD3)” and the “GATA-1 transcriptional activity (luciferase)” value [1] was “GATA-1 transcription suppression was not observed”.
